For orientation: Ki means the equilibrium dissociation constant of an inhibitor or competing ligand from its target.

The values that follow come from patent US8026218.

The target of experiment [1] is guinea pig NK1 receptor (guinea pig) (UniProt P30547). The experiment can be described thus: cell-based or functional assay.
Experiment [2] has as its target δ opioid receptor of the mouse isolated vas deferens (mouse) (UniProt P32300). The experiment can be described thus: cell-based or functional assay.
Experiment [3] addresses human NK1 receptor (human) (UniProt P25103). The experiment can be described thus: competition vs [3H]Substance P, hNK1 CHO cell membranes.
The target of experiment [4] is rat NK1 receptor (rat) (UniProt P14600). The experiment is described as follows: competition vs [3H]Substance P, rNK1 CHO cell membranes.
Chain of rat NK1 receptor (rat) (P14600 whole entry): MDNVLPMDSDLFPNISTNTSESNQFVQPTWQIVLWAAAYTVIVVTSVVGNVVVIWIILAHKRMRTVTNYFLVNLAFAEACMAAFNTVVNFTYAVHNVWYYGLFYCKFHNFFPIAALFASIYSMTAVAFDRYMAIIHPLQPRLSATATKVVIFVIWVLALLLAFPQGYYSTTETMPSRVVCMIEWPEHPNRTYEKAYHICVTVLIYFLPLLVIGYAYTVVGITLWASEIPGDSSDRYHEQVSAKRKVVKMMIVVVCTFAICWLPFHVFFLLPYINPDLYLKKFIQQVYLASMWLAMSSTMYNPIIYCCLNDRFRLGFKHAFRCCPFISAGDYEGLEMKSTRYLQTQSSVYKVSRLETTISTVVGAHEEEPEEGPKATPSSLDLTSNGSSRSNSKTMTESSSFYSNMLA
Experiment [5] has as its target µ opioid receptor of the guinea pig isolated ileum (guinea pig) (UniProt P97266). The experiment can be described thus: cell-based or functional assay.
The target of experiment [6] is human δ opioid receptor (human) (UniProt P41143). The experiment can be described thus: cell-based or functional assay.
Chain of human δ opioid receptor (human) (P41143 whole entry, stated change not applied): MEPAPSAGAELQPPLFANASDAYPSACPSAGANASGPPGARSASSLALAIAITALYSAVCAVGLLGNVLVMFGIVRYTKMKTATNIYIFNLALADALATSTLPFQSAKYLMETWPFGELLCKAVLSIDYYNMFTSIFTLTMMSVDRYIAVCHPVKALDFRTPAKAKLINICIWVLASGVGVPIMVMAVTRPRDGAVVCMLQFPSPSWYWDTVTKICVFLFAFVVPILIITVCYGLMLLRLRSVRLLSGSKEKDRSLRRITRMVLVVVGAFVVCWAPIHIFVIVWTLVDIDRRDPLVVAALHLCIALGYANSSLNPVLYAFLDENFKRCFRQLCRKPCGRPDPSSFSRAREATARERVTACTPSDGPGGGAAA
Experiment [7] concerns the target rat µ opioid receptor (rat) (UniProt P33535). The experiment is described as follows: cell-based or functional assay.
The target in experiment [8] is δ opioid receptor of the mouse isolated vas deferens (mouse), P32300. The experiment can be described thus: cell-based or functional assay.
Chain of δ opioid receptor of the mouse isolated vas deferens (mouse), P32300 (P32300 whole entry, stated change not applied): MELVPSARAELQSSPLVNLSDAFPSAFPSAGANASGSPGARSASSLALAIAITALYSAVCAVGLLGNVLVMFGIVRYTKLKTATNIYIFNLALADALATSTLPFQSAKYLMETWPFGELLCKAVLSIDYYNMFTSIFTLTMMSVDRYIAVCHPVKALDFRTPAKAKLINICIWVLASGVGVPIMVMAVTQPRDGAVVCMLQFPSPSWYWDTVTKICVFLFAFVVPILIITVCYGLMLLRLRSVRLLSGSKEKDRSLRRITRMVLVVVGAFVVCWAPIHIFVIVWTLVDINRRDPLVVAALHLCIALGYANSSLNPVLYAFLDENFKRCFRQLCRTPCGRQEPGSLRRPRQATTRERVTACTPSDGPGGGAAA
The target in experiment [9] is rat µ opioid receptor (rat) (UniProt P33535). The experiment can be described thus: radioligand competition vs [3H]DAMGO, membranes of rMOR cells. In general terms: Displacement assays read how much labelled ligand stays bound in the presence of the test substance.
Chain of rat µ opioid receptor (rat) (P33535 whole entry): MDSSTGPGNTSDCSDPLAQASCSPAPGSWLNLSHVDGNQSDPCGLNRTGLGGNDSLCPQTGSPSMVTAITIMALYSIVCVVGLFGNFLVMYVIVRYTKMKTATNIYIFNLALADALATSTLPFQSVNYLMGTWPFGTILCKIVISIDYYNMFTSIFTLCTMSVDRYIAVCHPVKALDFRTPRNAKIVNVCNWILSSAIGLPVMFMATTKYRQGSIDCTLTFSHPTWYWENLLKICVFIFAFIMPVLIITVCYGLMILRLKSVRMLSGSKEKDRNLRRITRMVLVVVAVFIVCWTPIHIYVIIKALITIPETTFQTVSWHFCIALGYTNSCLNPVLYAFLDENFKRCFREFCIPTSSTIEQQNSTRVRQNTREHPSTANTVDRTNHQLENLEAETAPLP
Experiment [10] concerns the target human δ opioid receptor (human) (UniProt P41143). The experiment can be described thus: radioligand competition vs [3H]DPDPE, membranes of hDOR cells.
The target of experiment [11] is human NK1 receptor (human) (UniProt P25103). The experiment is described as follows: radioligand competition vs [3H]substance P, membranes of hNK1 CHO cells.
Chain of human NK1 receptor (human) (P25103 whole entry): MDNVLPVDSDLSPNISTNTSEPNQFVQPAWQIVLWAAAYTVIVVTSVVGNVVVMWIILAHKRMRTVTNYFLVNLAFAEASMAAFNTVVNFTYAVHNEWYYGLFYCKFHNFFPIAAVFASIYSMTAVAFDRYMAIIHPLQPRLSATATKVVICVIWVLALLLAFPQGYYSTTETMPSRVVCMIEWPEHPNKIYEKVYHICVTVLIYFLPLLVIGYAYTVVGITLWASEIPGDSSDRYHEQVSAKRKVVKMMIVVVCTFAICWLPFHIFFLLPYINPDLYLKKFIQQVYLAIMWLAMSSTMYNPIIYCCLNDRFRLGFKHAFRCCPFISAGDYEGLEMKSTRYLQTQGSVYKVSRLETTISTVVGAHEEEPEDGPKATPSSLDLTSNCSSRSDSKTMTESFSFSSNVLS
The target of experiment [12] is rat NK1 receptor (rat) (UniProt P14600). The experiment is described as follows: radioligand competition vs [3H]substance P, membranes of rNK1 CHO cells.
In experiment [13] the target is rat µ opioid receptor (rat) (UniProt P33535). The experiment is described as follows: competition vs [3H]DAMGO, rMOR cell membranes.
Experiment [14] has as its target human δ opioid receptor (human) (UniProt P41143). The experiment can be described thus: competition vs [3H]DPDPE, hDOR cell membranes.

Bridge positions count the residues as written; N and C are the ends. Square brackets hold non-standard residues; d marks the D form. Primed or numbered codes have the meaning given here. Ends that are not written are not given here. * marks the point of attachment. O‑Bzl(CF3)2 = C-terminal bis(trifluoromethyl)benzyl ester; NH(3,5-(CF3)2-benzyl) = FC(F)(F)c1cc(CN*)cc(C(F)(F)F)c1; OBzl(3,5-(CF3)2) = FC(F)(F)c1cc(CO*)cc(C(F)(F)F)c1; O‑Bzl(CF3)2(3) = C-terminal O-Bzl(CF3)2 ester; NH‑Bn(CF3)2 = C-terminal Bn(CF3)2 amide; dPen = CC(C)(S)[C@@H](N)C(=O)O; Pen = CC(C)(S)[C@H](N)C(=O)O; Nle = CCCC[C@H](N)C(=O)O; Abu = CC[C@H](N)C(=O)O; GABA = NCCCC(=O)O; βAla = NCCC(=O)O

Chain of µ opioid receptor of the guinea pig isolated ileum (guinea pig) (P97266 whole entry): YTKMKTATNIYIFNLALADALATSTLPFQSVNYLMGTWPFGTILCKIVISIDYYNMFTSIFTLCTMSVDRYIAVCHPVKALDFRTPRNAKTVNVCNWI
Chain of δ opioid receptor of the mouse isolated vas deferens (mouse) (P32300 whole entry, stated change not applied): as the sequence (P32300 whole entry, stated change not applied) above
Chain of guinea pig NK1 receptor (guinea pig) (P30547 whole entry): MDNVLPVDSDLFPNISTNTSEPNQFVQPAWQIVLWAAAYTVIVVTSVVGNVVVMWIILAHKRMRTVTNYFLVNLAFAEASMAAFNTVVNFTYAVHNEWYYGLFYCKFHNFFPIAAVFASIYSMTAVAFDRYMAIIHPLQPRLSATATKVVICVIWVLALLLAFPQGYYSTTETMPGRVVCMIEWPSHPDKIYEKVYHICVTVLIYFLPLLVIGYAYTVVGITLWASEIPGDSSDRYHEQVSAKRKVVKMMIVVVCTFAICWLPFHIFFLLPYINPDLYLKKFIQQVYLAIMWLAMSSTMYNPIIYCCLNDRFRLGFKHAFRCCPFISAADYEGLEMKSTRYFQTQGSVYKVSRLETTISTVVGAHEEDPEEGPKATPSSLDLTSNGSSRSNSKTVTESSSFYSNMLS

For the molecule Y[dA]GFW-{OBzl(3,5-(CF3)2)} [Tyr-D-Ala-Gly-Phe-Trp-O-3′,5′(CF3)2-Bzl (NP36)], the GPI SP-antagonist Ke in experiment [1] came out at 38 nM. The molecule further yielded an MVD δ-agonist IC50 in experiment [2] of 43.1 nM.
As for Y[dPen]GF[Nle]P[dPen]W-{NH(3,5-(CF3)2-benzyl)} (disulfide 2-7) [Tyr[DPenGlyPheNleProDPen]TrpNHBn(CF3)2], the inhibitory constant (Ki) is 1.9 nM in experiment [3] and 26 nM in the experiment with rat NK1 receptor (rat) [4].
Take Y[dA]GF[dA]W-{O‑Bzl(CF3)2(3)} [Tyr-DAla-Gly-Phe-D-Ala-Trp-O-Bzl(CF3)2 (NP40)]: in experiment [1], the GPI/LMMP SP antagonist Ke was 608 nM. In experiment [5], this molecule had a GPI/LMMP µ-agonist IC50 of 528 nM. Also, the MVD δ-agonist IC50 in [2] is 58 nM.
In [6], Y[dC]GF[Nle]P[dC]W-{NH(3,5-(CF3)2-benzyl)} (disulfide 2-7) [Tyr[DCysGlyPheNleProDCys]TrpNHBn(CF3)2 (TY038)] registered a GTP binding hDOR EC50 of 14 nM. This molecule gave a GTP binding hDOR Emax in [6] of 87%. The same molecule yielded a GTP binding rMOR EC50 in [7] of 21.7 nM. In addition, the GTP binding rMOR Emax in experiment [7] was 11%. For the same molecule, in experiment [8], the MVD opioid(delta) agonist IC50 was found to be 18.9 nM. Also, the inhibition constant (Ki) in [9] worked out at 156 nM; in [10], 55.5 nM; in experiment [11], 0.24 nM; with rat NK1 receptor (rat) [12], 7.11 nM.
Y[dA]GF[βAla]W-{O‑Bzl(CF3)2(3)} [Tyr-DAla-Gly-Phe-β-Ala-Trp-O-Bzl(CF3)2 (NP32)] yielded a GPI/LMMP SP antagonist Ke in experiment [1] of 250 nM. The same molecule showed a GPI/LMMP µ-agonist IC50 in experiment [5] of 435 nM. Moreover, in experiment [2], the MVD δ-agonist IC50 is 12.6 nM.
In experiment [1], Y[dA]GW-{OBzl(3,5-(CF3)2)} [Tyr-D-Ala-Gly-Trp-O-3′,5′(CF3)2-Bzl (NP44)] showed a GPI SP-antagonist Ke of 5 nM. The molecule further displayed an MVD δ-agonist IC50 in experiment [2] of 303 nM.
In the case of Y[dPen]GF[Nle]P[Pen]W-{NH‑Bn(CF3)2} (disulfide 2-7) [Tyr[DPenGlyPheNleProPen]TrpNHBn(CF3)2 (TY047)], the GTP binding rMOR EC50 in [7] stood at 2910 nM. The GTP binding rMOR Emax in experiment [7] came to 15%. In addition, the Ki in experiment [9] is 1970 nM; in experiment [10], 152 nM; in [11] it was 59 nM; with rat NK1 receptor (rat) [12], 163 nM.
In experiment [1], Y[dA]GFPW-{O‑Bzl(CF3)2} [Tyr-DAla-Gly-Phe-Pro-Trp-O-Bzl(CF3)2 (NP39)] came in with a GPI/LMMP SP antagonist Ke of 1.8 nM. The same molecule displayed an MVD δ-agonist IC50 in [2] of 84.6 nM.
Regarding Y[dA]GFAW-{O‑Bzl(CF3)2(3)} [Tyr-DAla-Gly-Phe-Ala-Trp-O-Bzl(CF3)2 (NP31)], in [1], the GPI/LMMP SP antagonist Ke was 18.6 nM. In addition, in [5], the GPI/LMMP µ-agonist IC50 was 401 nM. In experiment [2], this molecule returned an MVD δ-agonist IC50 of 6.4 nM.
Turning to Y[dA]GFGW-{O‑Bzl(CF3)2(3)} [Tyr-DAla-Gly-Phe-Gly-Trp-O-Bzl(CF3)2 (NP30)], the GPI/LMMP SP antagonist Ke in [1] is 58.9 nM. This molecule also yielded a GPI/LMMP µ-agonist IC50 in experiment [5] of 25.7 nM. In addition, in [2], the MVD δ-agonist IC50 was found to be 20.9 nM.
With Y[dPen]GF[Nle]P[Pen]W-{NH(3,5-(CF3)2-benzyl)} (disulfide 2-7) [Tyr[DPenGlyPheNleProPen]TrpNHBn(CF3)2], the GTP binding EC50 in experiment [7] is 2910 nM. For the same molecule, the GTP binding Emax in experiment [7] is 15%. Further, the inhibitory constant (Ki) in experiment [13] stood at 1970 nM; in experiment [14], 152 nM; in experiment [3], 59 nM; with rat NK1 receptor (rat) [4], 163 nM.
Regarding Y[dPen]GF[Nle]P[dPen]W-{NH‑Bn(CF3)2} (disulfide 2-7) [Tyr[DPenGlyPheNleProDPen]TrpNHBn(CF3)2 (TY048)], the GTP binding rMOR EC50 in experiment [7] is 135 nM. In experiment [7], this molecule registered a GTP binding rMOR Emax of 29%. Moreover, the Ki in experiment [9] is 998 nM; in [11] it was 1.9 nM; with rat NK1 receptor (rat) [12], 26 nM.
Y[dA]GFMW-{O‑Bzl(CF3)2} [Tyr-DAla-Gly-Phe-Met-Trp-O-Bzl(CF3)2 (NP38)] gave a GPI/LMMP SP antagonist Ke in experiment [1] of 2 nM. The molecule also had an MVD δ-agonist IC50 in experiment [2] of 9.07 nM.
In turn, Y[dA]GF[Abu]W-{O‑Bzl(CF3)2(3)} [Tyr-DAla-Gly-Phe-α-Abu-Trp-O-Bzl(CF3)2 (NP33)] registered a GPI/LMMP SP antagonist Ke in [1] of 5.6 nM. In experiment [5], this molecule displayed a GPI/LMMP µ-agonist IC50 of 600 nM. Moreover, the MVD δ-agonist IC50 in experiment [2] came to 12.4 nM.
In turn, Y[dA]GF[GABA]W-{O‑Bzl(CF3)2(3)} [Tyr-DAla-Gly-Phe-γ-Abu-Trp-O-Bzl(CF3)2 (NP34)] yielded a GPI/LMMP SP antagonist Ke in [1] of 0.96 nM. For the same molecule, the GPI/LMMP µ-agonist IC50 in experiment [5] amounted to 200 nM. Besides, in experiment [2], the MVD δ-agonist IC50 was determined as 67.9 nM.
